Source: article PMC3785480

Key:
[1] = molecular target: recombinant BB0347 (Borrelia burgdorferi); assay: ELISA; Figure 5, rBB0347 with full-length Fn; which protein was coated is not told; KD = concentration of added protein at half-maximal binding, assuming saturation
[2] = molecular target: recombinant BB0347 (Borrelia burgdorferi); assay: ELISA

“human fibronectin (from UniProt P02751 32-2477) (natural protein)” was tested, and the Kd [1] was 200 nM and the percent reduction of binding with 50 µM heparin [2] was 40%.
